This is an account of results in publication doi:10.1101/2025.11.18.25340499 (medRxiv, 2025).

In test [1] the target is T1, MuSK Bait (Homo sapiens (species of MuSK not …, UniProt O15146)). Briefly: AlphaScreen or HTRF. A general note: Alpha assays give light when donor and acceptor beads are brought close together.
In test [2] the target is T1, MuSK Bait. Briefly: SPR. (SPR reads the build-up and loss of mass on a sensor chip optically.)

B1: MuSK1B (antibody, V domains shown)
VH: EVQLVEWGAGLLKPSETLSLTCAVYGGSFSGDYWWTWIRQPPGKGLEWIGEIDHTGNTNYNPSLKSRLTLSVDMSKNHFSLKLTSVTAADTALYFCARQEGLGYYDSWGQGTLVTVSS
VL: SYELTQSPSVSVSPGQTANITCSGDKLGDRYASWYQQKPAQSPVLVIYQDDRRPSGIPERFSGSNSGNTATLTISGTQGMDEADYYCQAWDGTTVFGGGTKLTVL
Take B1: the binding result with MuSK Bait [1] is recorded as “binds”.

B2: 11-3F6 (antibody, V domains shown)
VH: EVQLVESGGGLVKPGGSLRLSCAASGFTFSSYTMDWVRQAPGKGLEWVSSIGSNGDYIYYADSVRGRFTISRDNAKNSLYLQMNSLRPDDTADYYCARGQLAVAGTHFDYWGRGSLVTVSS
VL: DIQMTQSPSSLSASVGDRVTISCRASQKVNKYVNWYQQTPGKAPRLLIYAASTLQSGVPSRFSGSGSGANFTLTISGLQPEDFAIYFCQQSYSPLCTFGQGTKLEIK
As to B2, the binding result with MuSK Bait [1] is “binds”.

B3: MuSK1A (antibody, V domains shown)
VH: QVQLVQSGAEVKKPGASVKVSCKTSGYTFNNYDINWVRQAAGQGLEWMGWMNPYSGNTGYAQKFQGRVTMTRNISITTVYMELSSLRSEDTAVYYCAREVRGDTGYGGGSDYWGQGTLVTVSS
VL: SYELTQPPSVSLSPGQTATITCSGDKLDDNYVCWYQQKPGQSPVLVIYQDTMRPSGIPERFSGSNSGNIATLTISGTQAVDEADYYCQAWDGSTVVFGGGTRLTVL
On to B3, for which the binding result with MuSK Bait [1] is on record as “binds”.

B4: 13-3B5 (antibody, V domains shown)
VH: QVQLVQSGAVVAKPGASVQVSCKTSGYTFTGQYLHWVRQAPGQGLEWIGWINPSSGVTKFAEKFEGRATMTRDTSITTAYIDLRSLRSDDTATYYCATLSLGVYYVGMVAWGQGTLVTVSS
VL: SYELTQPPSVSVSPGQTATITCSGDGLAQQHVYWFQQRPGQAPLLIIYKDIERPSGIPERFSGSSSGTTAMLTISGVQAEDEADYYCQSGDRTATSVLFGGGTKMTVL
Consider B4, for which the binding result in the test with MuSK Bait [2] is “binds”.
